Experimental data: publication PMC5667929, “Combinatorial action of Grainyhead, Extradenticle and Notch in regulating Hox mediated apoptosis in Drosophila larval CNS”

T1: Exd/Hth-HM (UniProt P40427;O46339 1-376;127-211)
T1 sequence 1: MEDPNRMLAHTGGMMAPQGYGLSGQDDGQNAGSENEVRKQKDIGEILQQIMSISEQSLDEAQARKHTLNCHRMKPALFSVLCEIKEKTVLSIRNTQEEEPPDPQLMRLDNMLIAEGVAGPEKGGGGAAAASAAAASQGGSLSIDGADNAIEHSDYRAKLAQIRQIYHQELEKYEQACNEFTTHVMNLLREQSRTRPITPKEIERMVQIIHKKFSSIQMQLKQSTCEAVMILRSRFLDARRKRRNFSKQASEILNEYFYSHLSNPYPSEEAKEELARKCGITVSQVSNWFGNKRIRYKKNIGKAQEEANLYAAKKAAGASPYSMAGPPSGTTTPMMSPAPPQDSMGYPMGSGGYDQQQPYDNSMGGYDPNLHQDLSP
T1 sequence 2: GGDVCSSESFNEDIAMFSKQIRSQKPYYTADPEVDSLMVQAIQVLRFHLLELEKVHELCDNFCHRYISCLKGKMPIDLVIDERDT


Experiments:
[1] = biological target: T2, AbdA (Hox);Exd/Hth-HM (Drosophila melanogaster?;Drosophila …, UniProt P29555;P40427;O46339 261-590;1-376;127-211, |); assay: EMSA; intact in text; slightly reduced per legend; EMSA, 20 ul, 30 min, room temperature; 5X buffer as printed: 20% glycerol, 1 mg/ml BSA, 2.5 mM EDTA, '50mM 1M tris' pH 7.5, 50 mM KCl, 5 mM MgCl2, 2.5 mM DTT, 90 ug/ml poly(dI-dC); proteins 100-200 ng; conditions: protein: recombinant;recombinant; tags: 6xHis;6xHis; copies: 1;1;1
Target sequence in this assay (P29555 261-590, one chain of several): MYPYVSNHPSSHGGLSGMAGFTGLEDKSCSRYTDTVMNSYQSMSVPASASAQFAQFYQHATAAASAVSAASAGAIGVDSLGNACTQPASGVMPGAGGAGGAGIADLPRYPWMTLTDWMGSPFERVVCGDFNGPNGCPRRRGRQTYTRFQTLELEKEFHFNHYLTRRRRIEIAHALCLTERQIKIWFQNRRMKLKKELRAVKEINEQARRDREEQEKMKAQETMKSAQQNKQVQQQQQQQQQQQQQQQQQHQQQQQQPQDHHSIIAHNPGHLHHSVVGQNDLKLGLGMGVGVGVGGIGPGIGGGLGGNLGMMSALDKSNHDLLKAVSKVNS

[2] = biological target: T3, Grh (UniProt P13002 551-1333); assay: EMSA; EMSA, 20 ul, 30 min, room temperature; 5X buffer as printed: 20% glycerol, 1 mg/ml BSA, 2.5 mM EDTA, '50mM 1M tris' pH 7.5, 50 mM KCl, 5 mM MgCl2, 2.5 mM DTT, 90 ug/ml poly(dI-dC); proteins 100-200 ng; conditions: protein: recombinant; tags: 6xHis; chain copies: 2
T3 sequence (P13002 551-1333): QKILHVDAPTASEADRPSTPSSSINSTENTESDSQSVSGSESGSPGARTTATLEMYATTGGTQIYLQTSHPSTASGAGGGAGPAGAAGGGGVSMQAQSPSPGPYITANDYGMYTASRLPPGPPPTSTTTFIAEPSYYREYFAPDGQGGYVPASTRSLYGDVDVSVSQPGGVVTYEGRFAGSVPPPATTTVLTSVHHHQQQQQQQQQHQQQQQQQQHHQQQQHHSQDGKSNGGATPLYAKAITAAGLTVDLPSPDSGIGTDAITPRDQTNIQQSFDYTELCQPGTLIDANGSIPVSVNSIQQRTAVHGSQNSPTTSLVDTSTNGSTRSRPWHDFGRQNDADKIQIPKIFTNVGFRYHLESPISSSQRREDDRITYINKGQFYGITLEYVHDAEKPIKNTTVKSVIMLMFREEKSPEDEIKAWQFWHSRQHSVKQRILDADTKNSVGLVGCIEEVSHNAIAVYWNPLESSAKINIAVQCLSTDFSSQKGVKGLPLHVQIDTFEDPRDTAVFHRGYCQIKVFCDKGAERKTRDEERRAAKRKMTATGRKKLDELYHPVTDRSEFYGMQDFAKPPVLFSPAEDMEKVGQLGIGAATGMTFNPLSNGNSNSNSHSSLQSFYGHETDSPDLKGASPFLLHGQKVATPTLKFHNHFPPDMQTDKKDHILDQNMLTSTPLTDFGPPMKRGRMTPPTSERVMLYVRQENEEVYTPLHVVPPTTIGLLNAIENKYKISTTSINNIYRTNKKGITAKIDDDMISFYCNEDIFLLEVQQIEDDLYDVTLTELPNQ

[3] = biological target: T2, AbdA (Hox);Exd/Hth-HM; assay: as above; conditions: protein: recombinant;recombinant; tags: 6xHis;6xHis; copies: 1;1;1
[4] = biological target: T4, AbdA (Hox);Exd/Hth-HM;Grh (Drosophila melanogaster?;Drosophila …, UniProt P29555;P40427;O46339;P13002 261-590;1-376;127-211;551-1333, ||); assay: as above; conditions: protein: recombinant;recombinant;recombinant; tags: 6xHis;6xHis;6xHis; copies: 1;1;1;2
Target sequence in this assay (P29555 261-590, chain 1 of 4, one chain of several): as the sequence (P29555 261-590, one chain of several) above
Target sequence in this assay (P13002 551-1333, chain 4 of 4, one chain of several): as the sequence (P13002 551-1333) above

[5] = biological target: AbdA (Hox);Grh (Drosophila melanogaster?;Drosophila …, UniProt P29555;P13002 261-590;551-1333, |); assay: as above; conditions: protein: recombinant;recombinant; tags: 6xHis;6xHis; copies: 1;2
Chain of AbdA (Hox);Grh (P29555 261-590, chain 1 of 2): as the sequence (P29555 261-590, one chain of several) above
Chain of AbdA (Hox);Grh (P13002 551-1333, chain 2 of 2): as the sequence (P13002 551-1333) above

[6] = biological target: T5, AbdA (Hox) (UniProt P29555 261-590); assay: as above; conditions: protein: recombinant; tags: 6xHis
T5 sequence (P29555 261-590): as the sequence (P29555 261-590, one chain of several) above

[7] = biological target: T4, AbdA (Hox);Exd/Hth-HM;Grh; assay: EMSA; completely abolished in text; largely per legend; EMSA, 20 ul, 30 min, room temperature; 5X buffer as printed: 20% glycerol, 1 mg/ml BSA, 2.5 mM EDTA, '50mM 1M tris' pH 7.5, 50 mM KCl, 5 mM MgCl2, 2.5 mM DTT, 90 ug/ml poly(dI-dC); proteins 100-200 ng; conditions: protein: recombinant;recombinant;recombinant; tags: 6xHis;6xHis;6xHis; copies: 1;1;1;2
Target sequence in this assay (P29555 261-590, chain 1 of 2): as the sequence (P29555 261-590, one chain of several) above
Target sequence in this assay (P13002 551-1333, chain 4 of 2): as the sequence (P13002 551-1333) above

[8] = biological target: T5, AbdA (Hox); assay: EMSA; 100 and 200 ng; EMSA, 20 ul, 30 min, room temperature; 5X buffer as printed: 20% glycerol, 1 mg/ml BSA, 2.5 mM EDTA, '50mM 1M tris' pH 7.5, 50 mM KCl, 5 mM MgCl2, 2.5 mM DTT, 90 ug/ml poly(dI-dC); proteins 100-200 ng; conditions: protein: recombinant; tags: 6xHis
[9] = biological target: T1, Exd/Hth-HM; assay: EMSA; 200 ng; another sentence claims strong binding of each protein; EMSA, 20 ul, 30 min, room temperature; 5X buffer as printed: 20% glycerol, 1 mg/ml BSA, 2.5 mM EDTA, '50mM 1M tris' pH 7.5, 50 mM KCl, 5 mM MgCl2, 2.5 mM DTT, 90 ug/ml poly(dI-dC); proteins 100-200 ng; conditions: protein: recombinant; tags: 6xHis; copies: 1;1
[10] = biological target: T4, AbdA (Hox);Exd/Hth-HM;Grh; assay: EMSA; intact; slightly reduced intensity per legend; EMSA, 20 ul, 30 min, room temperature; 5X buffer as printed: 20% glycerol, 1 mg/ml BSA, 2.5 mM EDTA, '50mM 1M tris' pH 7.5, 50 mM KCl, 5 mM MgCl2, 2.5 mM DTT, 90 ug/ml poly(dI-dC); proteins 100-200 ng; conditions: protein: recombinant;recombinant;recombinant; tags: 6xHis;6xHis;6xHis; copies: 1;1;1;2
Target sequence in this assay (P29555 261-590, chain 1 of 2): as the sequence (P29555 261-590, one chain of several) above
Target sequence in this assay (P13002 551-1333, chain 4 of 2): as the sequence (P13002 551-1333) above

[11] = biological target: T3, Grh; assay: EMSA; no significant decrease; EMSA, 20 ul, 30 min, room temperature; 5X buffer as printed: 20% glycerol, 1 mg/ml BSA, 2.5 mM EDTA, '50mM 1M tris' pH 7.5, 50 mM KCl, 5 mM MgCl2, 2.5 mM DTT, 90 ug/ml poly(dI-dC); proteins 100-200 ng; conditions: protein: recombinant; tags: 6xHis; chain copies: 2
[12] = biological target: T1, Exd/Hth-HM; assay: EMSA; EMSA, 20 ul, 30 min, room temperature; 5X buffer as printed: 20% glycerol, 1 mg/ml BSA, 2.5 mM EDTA, '50mM 1M tris' pH 7.5, 50 mM KCl, 5 mM MgCl2, 2.5 mM DTT, 90 ug/ml poly(dI-dC); proteins 100-200 ng; conditions: protein: recombinant; tags: 6xHis; copies: 1;1

Binder	binding result [2]	binding result [3]	binding result [4]	binding result [5]	also measured
motif-30 Hox1 mutant (dsDNA) DNA 1: GAAACAGGAGAACCATAACTAATCC DNA 2: GGATTAGTTATGGTTCTCCTGTTTC	–	–	–	–	binding result [1]: binds
motif-29 (Hox-Exd consensus) (dsDNA) DNA 1: CTCAAGCGCGTGATGAATGTAATCTTCG DNA 2: CGAAGATTACATTCATCACGCGCTTGAG	no binding	binds	–	–	–
motif-30 Exd mutant (dsDNA) DNA 1: GAAACAGGATAACCATAACTGCTCC DNA 2: GGAGCAGTTATGGTTATCCTGTTTC	binds	no binding	no binding	binds	–
motif-31 (dsDNA) DNA 1: ACACAATTTTCTAAGATCCACTGGAATCGGTATGCCGATAGTT DNA 2: AACTATCGGCATACCGATTCCAGTGGATCTTAGAAAATTGTGT	binds	binds	no binding	–	binding result [6]: binds
motif-28 (dsDNA) DNA 1: AAGCCGAGCCTGAATCAGGTACTCAAATTGTCGC DNA 2: GCGACAATTTGAGTACCTGATTCAGGCTCGGCTT	binds	binds	no binding	binds	–
motif-30 Hox2 mutant (dsDNA) DNA 1: GAAACAGGATAACCAGGACTAATCC DNA 2: GGATTAGTCCTGGTTATCCTGTTTC	binds	no binding	–	no binding	binding result [7]: no binding; binding result [6]: no binding
motif-27 (dsDNA) DNA 1: TATATGTGGAACCACCTTGAAAGTCTACTGCCTGATTAGT DNA 2: ACTAATCAGGCAGTAGACTTTCAAGGTGGTTCCACATATA	binds	binds	binds	–	–
motif-23 (dsDNA) DNA 1: CTATTATCACTATTGCTTTGCTTCCTCAAAACCTTCATTCGA DNA 2: TCGAATGAAGGTTTTGAGGAAGCAAAGCAATAGTGATAATAG	binds	binds	–	–	–
motif-30 WT (dsDNA) DNA 1: GAAACAGGATAACCATAACTAATCC DNA 2: GGATTAGTTATGGTTATCCTGTTTC	binds	binds	binds	binds	binding result [8]: binds; binding result [9]: no binding
motif-25 (dsDNA) DNA 1: CGGGATATCACCAAACCATAGAAAATTTGCGGTACA DNA 2: TGTACCGCAAATTTTCTATGGTTTGGTGATATCCCG	binds	binds	no binding	–	–
motif-30 Hox1+2 mutant (dsDNA) DNA 1: GAAACAGGAGAACCAGGACTAATCC DNA 2: GGATTAGTCCTGGTTCTCCTGTTTC	–	no binding	no binding	no binding	binding result [6]: no binding
motif-30 Grh2 mutant (dsDNA) DNA 1: GAAACAGGATAACGATAACTAATCC DNA 2: GGATTAGTTATCGTTATCCTGTTTC	–	–	–	–	binding result [10]: binds; binding result [11]: binds
motif-33 (dsDNA) DNA 1: TACTGCCTGATTAGTGTAAATAATTGCCAGTCCTTG DNA 2: CAAGGACTGGCAATTATTTACACTAATCAGGCAGTA	binds	binds	no binding	binds	binding result [6]: binds; binding result [12]: binds
motif-32 (dsDNA) DNA 1: TTGCATGTGCGGATATATATATGTGGAACCACCTTG DNA 2: CAAGGTGGTTCCACATATATATATCCGCACATGCAA	binds	binds	binds	–	binding result [12]: binds
